The values below are quoted from earlier work in article PMC5758107.

The target in the data set is Foc ribosome-nascent chain complex (Escherichia coli) (UniProt P68699). The data set is described as follows: fluorescence correlation spectroscopy.

Where “and” joins values, the source holds several entries; their conditions need not be identical. Equal values may be shown once.

Chain of UniProt P68699 (P68699 whole entry, one chain of several): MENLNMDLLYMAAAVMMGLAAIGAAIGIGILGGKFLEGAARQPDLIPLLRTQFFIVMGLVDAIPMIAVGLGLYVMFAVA

YidC (from UniProt P25714): the Kd was 210 nM and 85 nM.
